# According to publication PMC8081665, “Structural and biochemical mechanisms of NLRP1 inhibition by DPP9” (Nature, 2021):
# Read-outs that look alike come from different tables or passages of the source.
# T1: UPA subdomain of the autocleaved rNLRP1 FIIND (rat, UniProt D9I2G3 969-1122)
# T1 construct: rat NLRP1, from S969, the residue after the autocleavage site, to the end of the FIIND construct (1122); source: sf21 insect cells, purified; product of the autocleavage of rNLRP1 FIIND (822-1122)
# T1 sequence (looked up): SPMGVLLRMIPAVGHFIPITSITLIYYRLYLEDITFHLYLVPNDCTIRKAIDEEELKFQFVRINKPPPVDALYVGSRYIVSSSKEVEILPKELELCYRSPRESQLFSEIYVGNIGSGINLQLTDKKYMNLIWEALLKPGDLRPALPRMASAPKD
# B1: ZU5 subdomain of the autocleaved rNLRP1 FIIND (domain or fragment, rat, UniProt D9I2G3 822-968, looked up)
# chain: GDKHMEPLGTDDDFWGPSGPVSTEVVDRERNLYRVRLPMAGSYHCPSTGLHFVVTRAVTIEIGFCAWSQFLHETPLQHSHMVAGPLFDIKAEHGAVTAVCLPHFVSLQEGKVDSSLFHVAHFQDHGMVLETPARVEPHFAVLENPSF
# notes: rat NLRP1, from the start of the FIIND construct (822) to F968, the residue before the autocleavage site; source: sf21 insect cells, purified; product of the autocleavage of rNLRP1 FIIND (822-1122); not shown: GST, N-terminal, cleaved
# B2: rNLRP1 FIIND–CARD(S969A) (domain or fragment)
# chain: GDKHMEPLGTDDDFWGPSGPVSTEVVDRERNLYRVRLPMAGSYHCPSTGLHFVVTRAVTIEIGFCAWSQFLHETPLQHSHMVAGPLFDIKAEHGAVTAVCLPHFVSLQEGKVDSSLFHVAHFQDHGMVLETPARVEPHFAVLENPSFAPMGVLLRMIPAVGHFIPITSITLIYYRLYLEDITFHLYLVPNDCTIRKAIDEEELKFQFVRINKPPPVDALYVGSRYIVSSSKEVEILPKELELCYRSPRESQLFSEIYVGNIGSGINLQLTDKKYMNLIWEALLKPGDLRPALPRMASAPKDAPALLHFVDQHREQLVARVTSVDPLLDKLHGLVLSEEDYETVRAEATNQDKMRKLFRGSRSWSWDCKDHFYQALKETHPHLIMDLLEKSGGVSVRL
# B3: full-length rat NLRP1 (natural protein, UniProt D9I2G3 1-1218, looked up)
# chain: MEESQSKQESNTRVAQHGSQQDVDPTFQTKRALEKERSKPRPRPLPRVQLQSLPGWSSTSKDVPLSQLIREMDHESRRCIHRSKKKLDRSEHISQGTIPEIYEKRKETISHTQSMEQKYLFQNFTKLLLLQKCCPGGSEKLVRESWHPCVPEEGGHMIEIQDLFDPNLDTEKKPQLVIIEGAAGIGKSTLARQVKRAWDEGQLYRDRFQHVFFFSCRELAQCKQLSLAELIAQGQEVPTAPTRQILSRPEKLLFILDGIDEPAWVLEDQNPELCVHWSQAQPVHTLLGSLLGKSILPEASLMLTARTTALQKLVPSLGQPHRVEVLGFSEFERKDYFYKYFAKERNTIIDFNLIGSIPVLLTLCEVPWVCWLLCTCLEKQMQQGEVLSLTSQTTTALCLKYLSLTIPGQHLSTQLRTLCSLAAEGICQRRTLFSKSDLCKQGLAEDAIATFLKIGVLQRQPSSLSYSFAHLCLQEFFAAMSYILEDSEEAHGDMGNDRTVETLVERYGRQNLFEAPTVRFLLGLLNTREMREMENIFACKFPWETKLKLLQSIIGEPFCQPCHLGLFHCLYENQEEELLTETMLCFPLTASGPNHMEATVFQTNVKRLVIQTDMELMVVTFCITFSHVRSLRLKGKGQQEYKLTAPAMVLYRWTPISEASWKVLFSNLKCTRNLEELDLSGNPLSYSAVRSLCTALRQPGCRLKTLWLVDCGLTSRCCSFLASMLSAHSRLAELDLRLNDLGDNGVRQLCEGLRNPACNLSILRLDQASLSEQVITELRALETKNPKLFISSTWMSHMTMPTENTDGEESLTSSKQQQQQSGDKHMEPLGTDDDFWGPSGPVSTEVVDRERNLYRVRLPMAGSYHCPSTGLHFVVTRAVTIEIGFCAWSQFLHETPLQHSHMVAGPLFDIKAEHGAVTAVCLPHFVSLQEGKVDSSLFHVAHFQDHGMVLETPARVEPHFAVLENPSFSPMGVLLRMIPAVGHFIPITSITLIYYRLYLEDITFHLYLVPNDCTIRKAIDEEELKFQFVRINKPPPVDALYVGSRYIVSSSKEVEILPKELELCYRSPRESQLFSEIYVGNIGSGINLQLTDKKYMNLIWEALLKPGDLRPALPRMASAPKDAPALLHFVDQHREQLVARVTSVDPLLDKLHGLVLSEEDYETVRAEATNQDKMRKLFRGSRSWSWDCKDHFYQALKETHPHLIMDLLEKSGGVSVRL
# notes: rat NLRP1, residues 1-1218, gene synthesized from GenBank HM060632.1; Autocleaves in the FIIND between F968 and S969; of the second copy only UPA is seen, and the abstract calls it a UPA-CARD fragment; also called rNLRP1; full-length rNLRP1; source: sf21 insect cells (baculovirus), co-expressed with rDPP9, purified (GS4B, PreScission, gel filtration); not shown: GST, N-terminal, cleaved
# Experiments:
# rat DPP9 (rat) [1] = test: cryo-EM structure; purified complex after gel filtration, about 0.3 mg/ml in 25 mM Tris-HCl pH 8.0, 150 mM NaCl, 3 mM DTT; Titan Krios 300 kV
# [2] = molecular target: GST–rNLRP1 FIIND(S969A) (rat) (UniProt D9I2G3); test: SEC; Superose 6 10/30, 10 mM Tris pH 8.0, 100 mM NaCl; purified GST–rNLRP1 FIIND(S969A)–rDPP9 complex incubated with fully processed rNLRP1 FIIND at a molar ratio of about 1:1 at 4 °C for 150 min
# [3] = molecular target: T1, UPA subdomain of the autocleaved rNLRP1 …; test: crystal structure; rNLRP1 FIIND at 8 mg/ml, hanging drop at 18 °C, 1.0 M ammonium sulfate, 0.1 M Bis-Tris pH 5.5, 1% PEG 3,350; conditions: both partners purified
# rat DPP9 (rat) [4] = test: cryo-EM structure; purified complex after gel filtration, about 0.3 mg/ml in 25 mM Tris-HCl pH 8.0, 150 mM NaCl, 3 mM DTT; Titan Krios 300 kV; remark: listed apart in the source
# Target sequence in this assay (Q8BVG4 other isoform, or with tags, fused parts or gaps): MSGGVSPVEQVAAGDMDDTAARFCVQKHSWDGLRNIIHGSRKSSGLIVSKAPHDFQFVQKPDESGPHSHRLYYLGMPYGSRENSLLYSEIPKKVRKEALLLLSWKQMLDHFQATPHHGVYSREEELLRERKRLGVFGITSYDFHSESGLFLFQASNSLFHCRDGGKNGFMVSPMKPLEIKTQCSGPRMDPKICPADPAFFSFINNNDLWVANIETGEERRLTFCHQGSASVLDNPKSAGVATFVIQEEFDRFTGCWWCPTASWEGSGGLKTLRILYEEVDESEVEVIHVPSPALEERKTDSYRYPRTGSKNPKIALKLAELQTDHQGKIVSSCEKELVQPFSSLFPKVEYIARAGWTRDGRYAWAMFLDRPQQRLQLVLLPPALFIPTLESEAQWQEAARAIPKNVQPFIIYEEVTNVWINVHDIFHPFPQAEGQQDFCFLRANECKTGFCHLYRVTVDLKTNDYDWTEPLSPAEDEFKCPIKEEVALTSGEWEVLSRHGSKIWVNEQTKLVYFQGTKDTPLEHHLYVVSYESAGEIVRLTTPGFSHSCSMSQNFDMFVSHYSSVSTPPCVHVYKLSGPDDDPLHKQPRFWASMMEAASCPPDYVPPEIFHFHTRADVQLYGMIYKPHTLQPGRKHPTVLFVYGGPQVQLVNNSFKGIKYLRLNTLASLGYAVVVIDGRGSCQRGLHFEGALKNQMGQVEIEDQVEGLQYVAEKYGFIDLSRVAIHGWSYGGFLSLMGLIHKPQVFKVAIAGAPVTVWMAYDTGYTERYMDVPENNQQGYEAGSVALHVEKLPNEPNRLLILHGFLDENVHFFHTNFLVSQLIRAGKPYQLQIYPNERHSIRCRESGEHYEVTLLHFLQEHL
# [5] = molecular target: the molecule itself; test: as above
molecule,measurement,setting,value
rat DPP9 (enzyme),stoichiometry N,rat DPP9 (rat) [1],2
same,stoichiometry N,[2],1
B1,binding result,[3],binds
B2,stoichiometry N,rat DPP9 (rat) [4],1
B3,binding result,[5],binds
same,stoichiometry N,rat DPP9 (rat) [4],2
